From patent publication US20240336672A1 (INSTITUT PASTEUR, published 2024)

T1: CoV-NL63 Spike ectodomain (NL63-CoV, UniProt Q6Q1S2 19-1291)
T1 sequence: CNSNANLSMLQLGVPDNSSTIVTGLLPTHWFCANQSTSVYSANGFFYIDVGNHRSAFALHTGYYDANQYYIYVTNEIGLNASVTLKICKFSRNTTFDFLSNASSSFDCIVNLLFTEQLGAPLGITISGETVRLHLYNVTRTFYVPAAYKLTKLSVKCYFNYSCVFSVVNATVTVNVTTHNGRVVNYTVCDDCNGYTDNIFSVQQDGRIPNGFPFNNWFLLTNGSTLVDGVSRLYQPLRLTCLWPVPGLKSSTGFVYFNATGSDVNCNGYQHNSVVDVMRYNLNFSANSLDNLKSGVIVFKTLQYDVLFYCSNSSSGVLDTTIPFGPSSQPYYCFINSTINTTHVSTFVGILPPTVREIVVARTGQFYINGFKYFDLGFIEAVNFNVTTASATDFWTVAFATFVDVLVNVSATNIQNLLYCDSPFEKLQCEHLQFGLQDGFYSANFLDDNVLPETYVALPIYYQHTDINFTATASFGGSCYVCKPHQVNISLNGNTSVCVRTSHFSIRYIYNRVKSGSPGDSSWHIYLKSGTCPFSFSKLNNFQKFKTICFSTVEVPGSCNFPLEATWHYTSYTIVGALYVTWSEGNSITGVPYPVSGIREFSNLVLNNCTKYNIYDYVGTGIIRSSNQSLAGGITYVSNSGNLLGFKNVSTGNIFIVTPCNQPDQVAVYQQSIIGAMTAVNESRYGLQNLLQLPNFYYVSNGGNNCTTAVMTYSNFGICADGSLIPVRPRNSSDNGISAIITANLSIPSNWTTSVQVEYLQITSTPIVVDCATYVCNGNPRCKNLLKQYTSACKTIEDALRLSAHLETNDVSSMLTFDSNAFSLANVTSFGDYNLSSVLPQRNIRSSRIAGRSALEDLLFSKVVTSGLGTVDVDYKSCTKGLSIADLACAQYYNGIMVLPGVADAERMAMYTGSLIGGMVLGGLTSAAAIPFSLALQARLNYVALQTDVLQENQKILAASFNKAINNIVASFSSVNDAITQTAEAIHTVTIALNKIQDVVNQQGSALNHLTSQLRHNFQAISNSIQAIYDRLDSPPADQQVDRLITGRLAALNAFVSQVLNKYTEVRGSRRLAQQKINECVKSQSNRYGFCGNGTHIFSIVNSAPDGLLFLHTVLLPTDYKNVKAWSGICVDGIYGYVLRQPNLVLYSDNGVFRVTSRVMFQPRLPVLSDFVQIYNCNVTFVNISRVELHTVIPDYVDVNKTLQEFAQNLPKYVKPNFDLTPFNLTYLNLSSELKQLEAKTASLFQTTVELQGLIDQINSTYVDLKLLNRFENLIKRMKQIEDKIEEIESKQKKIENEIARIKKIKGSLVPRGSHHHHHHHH

T2: CoV-OC43 Spike ectodomain (OC43-CoV, UniProt P36334 14-1263)
T2 chain: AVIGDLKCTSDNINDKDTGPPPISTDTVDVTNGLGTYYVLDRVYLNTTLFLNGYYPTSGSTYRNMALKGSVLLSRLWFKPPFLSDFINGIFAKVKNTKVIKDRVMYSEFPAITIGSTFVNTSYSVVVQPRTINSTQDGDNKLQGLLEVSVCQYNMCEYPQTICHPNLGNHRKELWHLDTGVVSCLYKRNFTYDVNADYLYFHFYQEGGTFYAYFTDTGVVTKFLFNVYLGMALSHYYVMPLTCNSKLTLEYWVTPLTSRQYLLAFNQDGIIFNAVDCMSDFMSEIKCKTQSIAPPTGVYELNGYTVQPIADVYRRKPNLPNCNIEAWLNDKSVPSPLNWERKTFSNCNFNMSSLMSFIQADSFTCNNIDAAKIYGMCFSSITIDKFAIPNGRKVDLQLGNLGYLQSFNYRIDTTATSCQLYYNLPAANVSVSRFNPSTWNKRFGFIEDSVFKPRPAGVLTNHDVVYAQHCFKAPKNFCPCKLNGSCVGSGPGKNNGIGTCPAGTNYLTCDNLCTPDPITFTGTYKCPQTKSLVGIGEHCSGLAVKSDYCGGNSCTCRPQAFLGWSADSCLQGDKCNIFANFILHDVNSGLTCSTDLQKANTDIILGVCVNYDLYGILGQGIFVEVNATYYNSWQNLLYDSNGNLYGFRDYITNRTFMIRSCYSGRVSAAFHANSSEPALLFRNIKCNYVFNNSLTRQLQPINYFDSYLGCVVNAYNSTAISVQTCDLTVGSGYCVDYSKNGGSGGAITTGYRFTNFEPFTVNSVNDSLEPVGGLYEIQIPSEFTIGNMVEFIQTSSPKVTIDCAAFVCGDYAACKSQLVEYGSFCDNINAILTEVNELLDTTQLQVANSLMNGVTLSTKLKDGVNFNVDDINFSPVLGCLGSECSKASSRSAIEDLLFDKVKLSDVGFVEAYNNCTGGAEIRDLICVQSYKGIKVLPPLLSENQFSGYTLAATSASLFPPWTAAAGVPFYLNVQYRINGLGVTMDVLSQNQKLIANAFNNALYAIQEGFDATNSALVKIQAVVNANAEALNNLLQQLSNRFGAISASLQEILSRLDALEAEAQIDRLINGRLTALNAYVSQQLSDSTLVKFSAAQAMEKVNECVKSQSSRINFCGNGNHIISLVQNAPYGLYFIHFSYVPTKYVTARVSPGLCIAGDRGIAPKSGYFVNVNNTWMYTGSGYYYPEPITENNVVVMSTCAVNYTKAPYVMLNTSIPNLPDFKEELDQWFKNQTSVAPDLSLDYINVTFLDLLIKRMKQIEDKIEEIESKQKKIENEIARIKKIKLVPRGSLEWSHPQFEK


Experiments:
[1] = biological target: T1, CoV-NL63 Spike ectodomain; experiment: ELISA, coated antigen; further: test concentration or dose not given here
[2] = biological target: T2, CoV-OC43 Spike ectodomain; experiment: ELISA, coated antigen; further: test concentration or dose not given here
[3] = biological target: T1, CoV-NL63 Spike ectodomain; experiment: ELISA, coated spike ectodomain

Row | Binder | ELISA OD [1] | ELISA OD [2] | binding result [3]
1 | Cv2.3194 (recombinant human IgG1) (antibody, V domains shown) VH: EVQLVESGGGLIQPGGSLRLSCAASGITVTSNYMSWVRQAPGKGLEWVSVIYPGGSTFYADSVKGRFTISRDNSKNTLYLQMNSLRAEDTAVYYCARDLVVYGMDVWGQGTTVTVSS VL: EIVLTQSPGTLSLSPGERATLSCRASQSVSSSYLAWYQQKPGQAPRLLIYGASSRATGIPGRFSGSGSGTDFTLTISRLEPEDFAIYYCQQGVTFGGGTKVEIKR | 0.1 OD | 0.8 OD | no binding
2 | Cv2.3235 (recombinant human IgG1) (antibody, V domains shown) VH: EVQLVESGGGLIQPGGSLRLSCAASGFTVSRNYMSWVRQAPGKGLEWVSVIYSGGSTFYADSVKGRFTISRDNSKNTLYLQMNSLRAEDTAVYYCARDGDYYGMDVWGQGTTVTVSS VL: DIQMTQSPSFLSASVGDRVTITCRASQGISSFLAWYQQKPGKAPKLLIYGASTLQSGVTSRFSGSGSGTEFTLTISSLQPEDFATYYCQRLDSYPPITFGQGTRLEIKR | 0.2 OD | 0.3 OD | no binding
3 | Cv2.5213 (recombinant human IgG1) (antibody, V domains shown) VH: EVQLVESGGGLIQPGGSLRLSCAASGFTVSSNYMSWVRQAPGKGLEWVSLIYSGGSTYYADSVKGRFTISRDNSKNTLYLQMNSLRAEDTAVYYCARDLNYYGMDVWGQGATVTVSS VL: DIQMTQSPSSLSASVGDRVTITCRASQGISSYLAWYQQKPGKAPKLLIYAASTLQSGVPSRFSGSGSGTDFTLTISSLQPEDFATYYCQQLDSYSPFTFGPGTKVDIKR | 0.1 OD | 0.7 OD | no binding
4 | Cv2.1169 (recombinant human IgG1) (antibody, also called Cv2.1169 IgG) heavy: QVQLVQSGPEVKKPGTSVKVSCKASGFTFTTSAVQWVRQARGQRLEWIGWIVVGSGNTNYAQKFQERVTITRDMSTTTAYMELSSLRSEDTAVYYCAAPYCSGGTCLDGFDIWGQGTMVTVSSASTKGPSVFPLAPSSKSTSGGTAALGCLVKDYFPEPVTVSWNSGALTSGVHTFPAVLQSSGLYSLSSVVTVPSSSLGTQTYICNVNHKPSNTKVDKKVEPKSCDKTHTCPPCPAPELLGGPSVFLFPPKPKDTLMISRTPEVTCVVVDVSHEDPEVKFNWYVDGVEVHNAKTKPREEQYNSTYRVVSVLTVLHQDWLNGKEYKCKVSNKALPAPIEKTISKAKQPREPQVYTLPPSRDELTKNQVSLTCLVKGFYPSDIAVEWESNGQPENNYKTTPPVLDSDGSFFLYSKLTVDKSRWQQGNVFSCSVMHEALHNHYTQKSLSLSPGK light: not shown | 0.1 OD | 0.1 OD | no binding
5 | Cv2.1353 (recombinant human IgG1) (antibody, V domains shown) VH: EVQLVESGGGLVQPGGSLRLSCAASGVTVSSNYMNWVRQAPGKGLEWVSVIYSGGSTFYADSVKGRFIISRDNSKNTLYLQMNSLKTEDTAVYYCARDLGPMGFDIWGQGTMVTVSS VL: DIQMTQSPSFLSASVGDRVTITCRASQGISSYLAWYQQKPGKAPKLLIYAASTLQSGVPSRFSGSGSGTEFTLTISSLQPEDFATYYCQQLNSDPPVTFGPGTKVDIKR | 0.1 OD | 0.8 OD | no binding
